Data: patent US12048733B2, “Method of treatment” (THE BIONICS INSTITUTE OF AUSTRALIA, priority 2017, dated 2024)

B1: brain derived neurotrophic factor (protein, UniProt P23560 19-247, looked up)
Neurotrophic factor BDNF …: APMKEANIRGQGGLAYPGVRTHGTLESVNGPKAGSRGLTSLADTFEHVIEELLDEDQKVRPNEENNKDADLYTSRVMLSSQVPLEPPLLFLLEEYKNYLDAANMSMRVRRHSDPARRGELSVCDSISEWVTAADKKTAVDMSGGTVTVLEKVPVSKGQLKQYFYETKCNPMGYTKEGCRGIDKRHWNSQCRTTQSYVRALTMDSKKRIGWRFIRIDTSCVCTLTIKRGR
notes: neurotrophin; BDNF Human Protein (Geneway)

Legend:
[1] = Clearance of radiolabelled neurotrophin-3 by whole cochlear gamma counts; format: in vivo
Description: In vivo studies were carried out to determine the drug payload and clearance of neurotrophin delivered in a supraparticle implanted into the ear after 4 hr, 3 day and 7 days of implantation. The objective was to determine the amount of neurotrophin remaining in the cochlea over time.
1 SP containing radiolabelled neurotrophin-3 was implanted into each cochlea. Cochleae were harvested following 4 hrs (n=5), 3 d (n=7) or 7 d (n=4). Whole cochlear gamma counts were measured to determine the clearance of neurotrophin-3 over time. After 1 week of implantation each SP contained ˜2 ug of neurotrophin-3 (˜40%) of initial loaded amount.
Further experiments (n=2) were carried out to examine clearance of neurotrophin-3 following round window delivery. 3 days after implantation—whole cochlear measurements were again used to determine the clearance of neurotrophin-3 from the round window membrane.

[2] = BDNF perilymph concentration by ELISA after SP implantation; format: in vivo; details: 2 electrosprayed SPs loaded with BDNF, n=2
Description: Next, 2 SPs produced by electrospraying were loaded with BDNF and placed inside the cochlea. Serial perilymph samples (1 ul samples) were obtained from the apex of the cochlea at three days and one week post implantation (sampling techniques described in Plontke et al. (2007) Laryngoscope. 117:1191-1198) and samples were analysed using an ELISA.

[3] = after 1 week of implantation, 1 SP intracochlear

Row | Molecule | neurotrophin-3 remaining ([1]; 3 days after implantation, round window delivery) [%] | neurotrophin-3 remaining ([1]; 3 days, intracochlear delivery) [%] | amount of neurotrophin-3 remaining per SP [1, 3] [µg] | neurotrophin-3 remaining (% of initial loaded amount) [1, 3] [%] | peak BDNF perilymph concentration inside the cochlea ([2]; after 3 days) [ng/mL] | peak BDNF perilymph concentration inside the cochlea ([2]; after 7 days) [ng/mL]
1 | neurotrophin-3 | 47.4 | 56 | ~2 | ~40 | – | –
2 | B1 | – | – | – | – | 1707 | 775
